Reference: US20050037969A1 (ARBOR VITA, published 2005)
Ends that are not written are not given here. * marks the point of attachment. Biotin = O=C1N[C@H]2[C@H](CS[C@H]2CCCCC(=O)*)N1

How the values were obtained:
Test in all cases: A/G assays
[1] = target: T1, K858 PDZ-GST fusion protein (Homo sapiens (Human), UniProt Q8WWI1 1038-1131)
T1 construct: Order of GST and PDZ part and limits not seen in the excerpts
T1 sequence: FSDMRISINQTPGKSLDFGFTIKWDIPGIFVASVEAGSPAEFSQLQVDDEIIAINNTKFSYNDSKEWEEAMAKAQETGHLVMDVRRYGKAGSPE

[2] = target: T2, GST-TAX-IP40 PDZ domain fusion protein (human, UniProt Q6B4M5 150-252 (rat entry))
T2 construct: also called TAX40; not shown: glutathione S-transferase encoded by vector pGEX-3X (Pharmacia)
T2 sequence: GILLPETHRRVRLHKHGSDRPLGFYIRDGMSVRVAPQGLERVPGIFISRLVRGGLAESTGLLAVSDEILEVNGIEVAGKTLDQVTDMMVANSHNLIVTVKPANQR

[3] = target: T3, GST-LIM protein PDZ domain fusion protein (Human, UniProt Q96HC4 2-85)
T3 construct: also called Human LIM protein; not shown: glutathione S-transferase encoded by vector pGEX-3X (Pharmacia)
T3 sequence: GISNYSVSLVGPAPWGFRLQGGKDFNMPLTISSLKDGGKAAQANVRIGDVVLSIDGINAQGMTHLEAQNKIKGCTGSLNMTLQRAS

[4] = target: T4, GST-mouse syntenin fusion protein (Mus musculus, UniProt O08992 108-286)
T4 construct: also called Mus musculus Syntenin; not shown: glutathione S-transferase encoded by vector pGEX-3X (Pharmacia)
T4 chain: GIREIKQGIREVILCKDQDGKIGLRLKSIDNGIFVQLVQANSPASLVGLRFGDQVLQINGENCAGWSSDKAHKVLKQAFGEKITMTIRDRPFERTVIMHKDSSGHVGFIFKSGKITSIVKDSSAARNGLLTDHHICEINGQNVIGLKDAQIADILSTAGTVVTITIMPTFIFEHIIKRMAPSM

[5] = target: T5, ConEn PDZ-GST fusion protein (Homo sapiens (Human), UniProt Q969H4 193-287)
T5 construct: The label ConEn is not explained in the excerpts
T5 sequence: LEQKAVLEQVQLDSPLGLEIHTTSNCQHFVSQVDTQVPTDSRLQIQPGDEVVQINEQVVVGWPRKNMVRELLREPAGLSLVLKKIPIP

[6] = target: T6, MINT3 PDZ-GST fusion protein
T6 construct: Order of GST and PDZ part and limits not seen in the excerpts
T6 chain: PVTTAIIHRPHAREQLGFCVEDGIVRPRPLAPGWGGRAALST

[7] = target: T7, GST-CASK PDZ domain fusion protein (Homo sapiens, UniProt O14936 486-575)
T7 construct: also called Homo sapiens CASK protein
T7 sequence: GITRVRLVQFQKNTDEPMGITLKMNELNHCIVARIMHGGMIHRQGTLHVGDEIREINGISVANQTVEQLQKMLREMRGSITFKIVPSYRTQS

[8] = target: T8, PICK1 PDZ-GST fusion protein (Bos taurus (Bovine), UniProt Q2T9M1 17-105)
T8 construct: Order of GST and PDZ part and limits not seen in the excerpts
T8 sequence (Q2T9M1 other isoform, or with tags, fused parts or gaps limits assumed): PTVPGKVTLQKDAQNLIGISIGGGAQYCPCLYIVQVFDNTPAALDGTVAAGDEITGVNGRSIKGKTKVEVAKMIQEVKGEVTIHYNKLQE

[9] = target: T9, NSP PDZ-GST fusion protein (Homo sapiens (Human), UniProt Q92743 370-466)
T9 construct: The label NSP is not explained in the excerpts
T9 sequence (Q92743 other isoform, or with tags, fused parts or gaps limits assumed): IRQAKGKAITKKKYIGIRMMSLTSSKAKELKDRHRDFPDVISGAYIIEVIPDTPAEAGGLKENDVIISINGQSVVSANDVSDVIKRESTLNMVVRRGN

[10] = target: T10, GST-prIL16 fusion protein (PDZ domains 1-2) (Homo sapiens (Human), UniProt Q14005 1111-1324)
T10 construct: also called putative interleukin 16 precursor; not shown: glutathione S-transferase encoded by vector pGEX-3X (Pharmacia)
T10 sequence: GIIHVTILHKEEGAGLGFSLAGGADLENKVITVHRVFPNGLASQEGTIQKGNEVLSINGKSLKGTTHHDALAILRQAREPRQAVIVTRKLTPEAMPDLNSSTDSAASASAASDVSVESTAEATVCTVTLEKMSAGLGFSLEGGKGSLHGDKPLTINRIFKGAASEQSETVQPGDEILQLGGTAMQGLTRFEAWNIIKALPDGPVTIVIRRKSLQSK

[11] = target: T11, K559 PDZ-GST fusion protein (Homo sapiens (Human), UniProt Q9Y6V0 4489-4593)
T11 construct: Order of GST and PDZ part and limits not seen in the excerpts
T11 sequence: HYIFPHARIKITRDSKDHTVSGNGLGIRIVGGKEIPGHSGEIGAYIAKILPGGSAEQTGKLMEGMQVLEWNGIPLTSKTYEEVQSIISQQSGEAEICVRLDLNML

[12] = target: T12, GST-cytohesin binding protein PDZ domain fusion protein (Homo sapiens (Human), UniProt O60759 74-165)
T12 construct: also called CBP; not shown: glutathione S-transferase encoded by vector pGEX-3X (Pharmacia)
T12 sequence: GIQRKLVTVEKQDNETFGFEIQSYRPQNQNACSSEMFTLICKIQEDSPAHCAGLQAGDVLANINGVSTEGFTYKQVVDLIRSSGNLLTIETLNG

[13] = target: T13, NOS1 PDZ-GST fusion protein (Homo sapiens (Human), UniProt P29475 11-100)
T13 construct: Order of GST and PDZ part and limits not seen in the excerpts
T13 sequence (P29475 11-100 limits assumed): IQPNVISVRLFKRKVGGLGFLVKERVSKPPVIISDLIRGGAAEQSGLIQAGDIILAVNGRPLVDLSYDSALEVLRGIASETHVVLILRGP

[14] = target: T14, GST-PDZK1 fusion protein (PDZ domains 2-4) (Homo sapiens, UniProt Q5T2W1 134-457)
T14 construct: not shown: glutathione S-transferase encoded by vector pGEX-3X (Pharmacia)
T14 sequence: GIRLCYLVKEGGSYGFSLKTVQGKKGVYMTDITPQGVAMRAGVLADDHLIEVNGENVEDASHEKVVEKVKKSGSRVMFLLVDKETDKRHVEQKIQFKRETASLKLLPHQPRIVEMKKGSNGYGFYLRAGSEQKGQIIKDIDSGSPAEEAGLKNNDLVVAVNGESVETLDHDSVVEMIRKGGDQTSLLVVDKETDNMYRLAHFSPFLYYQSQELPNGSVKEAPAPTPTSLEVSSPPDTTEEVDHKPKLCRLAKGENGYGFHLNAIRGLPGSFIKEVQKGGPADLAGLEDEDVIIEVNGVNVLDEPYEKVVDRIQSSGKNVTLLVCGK

Measured: binding result

B1: CD6 C-terminal peptide AA6L, biotinylated (peptide)
peptide: Biotin-SPQPDSTDNDDYDDISAA
no binding: [1] | [2] | [3] | [4] | [5] | [6] | [7] | [8] | [9] | [10] | [11] | [12] | [13] | [14]

B2: VCAM1 C-terminal peptide AA17L, biotinylated (peptide)
peptide: Biotin-ARKANMKGSYSLVEAQKSKV
notes: also called CD106
no binding: [1] | [2] | [3] | [4] | [5] | [6] | [7] | [8] | [9] | [10] | [11] | [12] | [13] | [14]

B3: CDW128A (IL8RA) C-terminal peptide AA29.1L, biotinylated (peptide)
peptide: Biotin-ARHRVTSYTSSSVNVSSNL
no binding: [1] | [2] | [3] | [4] | [5] | [6] | [7] | [8] | [9] | [10] | [11] | [12] | [13] | [14]

B4: CC CKR-4 C-terminal peptide AA44L (peptide)
peptide: Biotin-DTPSSSYTQSTMDHDLHDAL
notes: Only the last four residues are seen in the excerpts
no binding: [1] | [2] | [3] | [4] | [5] | [6] | [7] | [8] | [9] | [10] | [11] | [12] | [13] | [14]

B5: CD49F C-terminal peptide AA12L, biotinylated (peptide)
peptide: Biotin-HKAEIHAQPSDKERLTSDA
notes: also called CD49F (Aform, alpha6)
no binding: [1] | [2] | [3] | [4] | [5] | [6] | [7] | [8] | [9] | [10] | [11] | [12] | [13] | [14]

B6: CD97 C-terminal peptide AA14L, biotinylated (peptide)
peptide: Biotin-TSGTGHNQTRALRASESGI
notes: also called CD97 (CD55L)
no binding: [1] | [2] | [3] | [4] | [5] | [6] | [7] | [8] | [9] | [10] | [11] | [12] | [13] | [14]

B7: CC CKR-2 C-terminal peptide AA42L (peptide)
peptide: Biotin-GKGKSIGRAPEASLQDKEGA
notes: as for B4
no binding: [1] | [2] | [3] | [4] | [5] | [6] | [7] | [8] | [9] | [10] | [11] | [12] | [13] | [14]
